T1: PUF4 RNA-binding domain (Saccharomyces cerevisiae, UniProt P25339 537-888)
T1 sequence: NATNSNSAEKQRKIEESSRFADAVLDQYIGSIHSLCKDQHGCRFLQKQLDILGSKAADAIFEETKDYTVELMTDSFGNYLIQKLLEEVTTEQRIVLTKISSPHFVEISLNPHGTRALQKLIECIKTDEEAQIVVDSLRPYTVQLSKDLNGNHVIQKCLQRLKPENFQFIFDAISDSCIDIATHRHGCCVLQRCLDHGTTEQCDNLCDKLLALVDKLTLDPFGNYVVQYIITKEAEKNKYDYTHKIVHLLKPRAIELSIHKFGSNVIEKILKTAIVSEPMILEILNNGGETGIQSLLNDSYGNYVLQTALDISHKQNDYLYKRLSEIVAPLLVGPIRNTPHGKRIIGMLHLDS


Each binder was assayed against T1, PUF4 RNA-binding domain (assay: Mg; RNA-MaP; 20 mM Na-HEPES pH 7.4, 30 mM KOAc, 0.75 mM MgCl2, 0.1% Tween-20, 5% glycerol, 0.1 mg/mL BSA, 2 mM DTT; 25 C; 0.0125-409.6 nM protein). Conditions: tags: N-His6-TEV cleaved; C-SNAP kept, Cy3B-labelled; label: tethered on chip by stalled RNA polymerase.

Binder | Kd [nM]
UCUCUUUGUAUACCAUCUCUU (ssRNA) [Ib_S1_P4E.1_K4.1_C4.1_H4.1_A4.1_[T7C]_F4.1_[T8C]_T4.1] | 13.1
UCUCUUUGUAUAAAAUCUCUU (ssRNA) [Ib_S1_P4E.1_K4.1_C4.1_H4.1_A4.1_[T7A]_F4.1_[T8A]_T4.1] | 22.1
UCUCUUUGUAUACAAUCUCUU (ssRNA) [Ib_S1_P4E.1_K4.1_C4.1_H4.1_A4.1_[T7C]_F4.1_[T8A]_T4.1] | 44.8
UCUCUUUGUAUAACAUCUCUU (ssRNA) [Ib_S1_P4E.1_K4.1_C4.1_H4.1_A4.1_[T7A]_F4.1_[T8C]_T4.1] | 11.8
Ic_S4_P4E.1_K4.1_C4.1_H4.1_A4.1_[A6G]_F4.1_[T8G]_[A9G]_T4.1 (ssRNA) RNA: UUUGACAACUGAUCGUUCUUUCUUGUAUGUGGUUCUUUCUCGAUCAGUUGUCUUU | 180
Ic_S4_P4E.1_K4.1_C4.1_H4.1_A4.1_[A6C]_F4.1_[T8G]_[A9C]_T4.1 (ssRNA) RNA: UUUGACAACUGAUCGUUCUUUCUUGUAUCUGCUUCUUUCUCGAUCAGUUGUCUUU | 52
Ic_S4_P4E.1_K4.1_C4.1_H4.1_A4.1_[A6G]_F4.1_[T8C]_[A9C]_T4.1 (ssRNA) RNA: UUUGACAACUGAUCGUUCUUUCUUGUAUGUCCUUCUUUCUCGAUCAGUUGUCUUU | 36.4
Ic_S4_P4E.1_K4.1_C4.1_H4.1_A4.1_[A6C]_[T7C]_F4.1_[T8G]_[A9T]_T4.1 (ssRNA) RNA: UUUGACAACUGAUCGUUCUUUCUUGUAUCCGUUUCUUUCUCGAUCAGUUGUCUUU | 172
Ic_S4_P4E.1_K4.1_C4.1_H4.1_A4.1_[A6G]_F4.1_[T8A]_[A9C]_T4.1 (ssRNA) RNA: UUUGACAACUGAUCGUUCUUUCUUGUAUGUACUUCUUUCUCGAUCAGUUGUCUUU | 85
Ic_S4_P4E.1_K4.1_C4.1_H4.1_A4.1_[A6C]_[T7A]_F4.1_[T8A]_[A9C]_T4.1 (ssRNA) RNA: UUUGACAACUGAUCGUUCUUUCUUGUAUCAACUUCUUUCUCGAUCAGUUGUCUUU | 477
Ic_S4_P4E.1_K4.1_C4.1_H4.1_A4.1_[A6G]_F4.1_[T8A]_[A9G]_T4.1 (ssRNA) RNA: UUUGACAACUGAUCGUUCUUUCUUGUAUGUAGUUCUUUCUCGAUCAGUUGUCUUU | 186
Ic_S4_P4E.1_K4.1_C4.1_H4.1_A4.1_[A6T]_[T7A]_F4.1_[T8C]_T4.1 (ssRNA) RNA: UUUGACAACUGAUCGUUCUUUCUUGUAUUACAUUCUUUCUCGAUCAGUUGUCUUU | 436
Ic_S4_P4E.1_K4.1_C4.1_H4.1_A4.1_[A6T]_[T7G]_F4.1_[T8G]_[A9T]_T4.1 (ssRNA) RNA: UUUGACAACUGAUCGUUCUUUCUUGUAUUGGUUUCUUUCUCGAUCAGUUGUCUUU | 1310
Ic_S4_P4E.1_K4.1_C4.1_H4.1_A4.1_[A6C]_[T7G]_F4.1_[T8C]_[A9C]_T4.1 (ssRNA) RNA: UUUGACAACUGAUCGUUCUUUCUUGUAUCGCCUUCUUUCUCGAUCAGUUGUCUUU | 994
Ic_S4_P4E.1_K4.1_C4.1_H4.1_A4.1_[A6C]_[T7A]_F4.1_[A9G]_T4.1 (ssRNA) RNA: UUUGACAACUGAUCGUUCUUUCUUGUAUCAUGUUCUUUCUCGAUCAGUUGUCUUU | 10.1
Ic_S4_P4E.1_K4.1_C4.1_H4.1_A4.1_[A6T]_[T7C]_F4.1_[T8G]_[A9C]_T4.1 (ssRNA) RNA: UUUGACAACUGAUCGUUCUUUCUUGUAUUCGCUUCUUUCUCGAUCAGUUGUCUUU | 417
Ic_S4_P4E.1_K4.1_C4.1_H4.1_A4.1_[A6T]_[T7G]_F4.1_[T8C]_[A9C]_T4.1 (ssRNA) RNA: UUUGACAACUGAUCGUUCUUUCUUGUAUUGCCUUCUUUCUCGAUCAGUUGUCUUU | 537
Ic_S4_P4E.1_K4.1_C4.1_H4.1_A4.1_[A6T]_F4.1_[T8G]_[A9G]_T4.1 (ssRNA) RNA: UUUGACAACUGAUCGUUCUUUCUUGUAUUUGGUUCUUUCUCGAUCAGUUGUCUUU | 230
Ic_S4_P4E.1_K4.1_C4.1_H4.1_A4.1_[A6T]_[T7C]_F4.1_[A9T]_T4.1 (ssRNA) RNA: UUUGACAACUGAUCGUUCUUUCUUGUAUUCUUUUCUUUCUCGAUCAGUUGUCUUU | 27.8
Ic_S4_P4E.1_K4.1_C4.1_H4.1_A4.1_[A6T]_[T7C]_F4.1_[T8A]_[A9T]_T4.1 (ssRNA) RNA: UUUGACAACUGAUCGUUCUUUCUUGUAUUCAUUUCUUUCUCGAUCAGUUGUCUUU | 113
Ic_S4_P4E.1_K4.1_C4.1_H4.1_A4.1_[A6C]_F4.1_[T8A]_[A9C]_T4.1 (ssRNA) RNA: UUUGACAACUGAUCGUUCUUUCUUGUAUCUACUUCUUUCUCGAUCAGUUGUCUUU | 34.1
Ic_S4_P4E.1_K4.1_C4.1_H4.1_A4.1_[A6T]_[T7G]_F4.1_[T8C]_[A9G]_T4.1 (ssRNA) RNA: UUUGACAACUGAUCGUUCUUUCUUGUAUUGCGUUCUUUCUCGAUCAGUUGUCUUU | 593
Ic_S4_P4E.1_K4.1_C4.1_H4.1_A4.1_[A6T]_[T7A]_F4.1_[A9C]_T4.1 (ssRNA) RNA: UUUGACAACUGAUCGUUCUUUCUUGUAUUAUCUUCUUUCUCGAUCAGUUGUCUUU | 38.3
Ic_S4_P4E.1_K4.1_C4.1_H4.1_A4.1_[A6T]_[T7G]_F4.1_[A9G]_T4.1 (ssRNA) RNA: UUUGACAACUGAUCGUUCUUUCUUGUAUUGUGUUCUUUCUCGAUCAGUUGUCUUU | 75.1
Ic_S4_P4E.1_K4.1_C4.1_H4.1_A4.1_[A6T]_[T7C]_F4.1_[T8A]_[A9C]_T4.1 (ssRNA) RNA: UUUGACAACUGAUCGUUCUUUCUUGUAUUCACUUCUUUCUCGAUCAGUUGUCUUU | 425

Binder | Kd [nM]
Ic_S4_P4E.1_K4.1_C4.1_H4.1_A4.1_[A6C]_[T7C]_F4.1_[T8C]_[A9C]_T4.1 (ssRNA) RNA: UUUGACAACUGAUCGUUCUUUCUUGUAUCCCCUUCUUUCUCGAUCAGUUGUCUUU | 403
Ic_S4_P4E.1_K4.1_C4.1_H4.1_A4.1_[A6C]_[T7C]_F4.1_[T8C]_[A9G]_T4.1 (ssRNA) RNA: UUUGACAACUGAUCGUUCUUUCUUGUAUCCCGUUCUUUCUCGAUCAGUUGUCUUU | 449
Ic_S4_P4E.1_K4.1_C4.1_H4.1_A4.1_[A6T]_[T7C]_F4.1_[T8C]_[A9T]_T4.1 (ssRNA) RNA: UUUGACAACUGAUCGUUCUUUCUUGUAUUCCUUUCUUUCUCGAUCAGUUGUCUUU | 61.9
Ic_S4_P4E.1_K4.1_C4.1_H4.1_A4.1_[A6C]_[T7G]_F4.1_[T8G]_[A9C]_T4.1 (ssRNA) RNA: UUUGACAACUGAUCGUUCUUUCUUGUAUCGGCUUCUUUCUCGAUCAGUUGUCUUU | > 2300
Ic_S4_P4E.1_K4.1_C4.1_H4.1_A4.1_[A6C]_[T7C]_F4.1_[A9G]_T4.1 (ssRNA) RNA: UUUGACAACUGAUCGUUCUUUCUUGUAUCCUGUUCUUUCUCGAUCAGUUGUCUUU | 29.9
Ic_S4_P4E.1_K4.1_C4.1_H4.1_A4.1_[A6C]_F4.1_[T8C]_[A9C]_T4.1 (ssRNA) RNA: UUUGACAACUGAUCGUUCUUUCUUGUAUCUCCUUCUUUCUCGAUCAGUUGUCUUU | 31.5
Ic_S4_P4E.1_K4.1_C4.1_H4.1_A4.1_[A6T]_F4.1_[T8C]_[A9C]_T4.1 (ssRNA) RNA: UUUGACAACUGAUCGUUCUUUCUUGUAUUUCCUUCUUUCUCGAUCAGUUGUCUUU | 74.5
Ic_S4_P4E.1_K4.1_C4.1_H4.1_A4.1_[A6C]_F4.1_[T8C]_[A9T]_T4.1 (ssRNA) RNA: UUUGACAACUGAUCGUUCUUUCUUGUAUCUCUUUCUUUCUCGAUCAGUUGUCUUU | 16.7
Ic_S4_P4E.1_K4.1_C4.1_H4.1_A4.1_[A6T]_[T7A]_F4.1_[T8C]_[A9C]_T4.1 (ssRNA) RNA: UUUGACAACUGAUCGUUCUUUCUUGUAUUACCUUCUUUCUCGAUCAGUUGUCUUU | 191
Ic_S4_P4E.1_K4.1_C4.1_H4.1_A4.1_[A6C]_[T7C]_F4.1_[T8A]_T4.1 (ssRNA) RNA: UUUGACAACUGAUCGUUCUUUCUUGUAUCCAAUUCUUUCUCGAUCAGUUGUCUUU | 577
Ic_S4_P4E.1_K4.1_C4.1_H4.1_A4.1_[A6G]_F4.1_[T8C]_[A9T]_T4.1 (ssRNA) RNA: UUUGACAACUGAUCGUUCUUUCUUGUAUGUCUUUCUUUCUCGAUCAGUUGUCUUU | 74.2
Ic_S4_P4E.1_K4.1_C4.1_H4.1_A4.1_[A6G]_F4.1_[T8A]_T4.1 (ssRNA) RNA: UUUGACAACUGAUCGUUCUUUCUUGUAUGUAAUUCUUUCUCGAUCAGUUGUCUUU | 70.5
Ic_S4_P4E.1_K4.1_C4.1_H4.1_A4.1_[A6C]_F4.1_[T8G]_[A9G]_T4.1 (ssRNA) RNA: UUUGACAACUGAUCGUUCUUUCUUGUAUCUGGUUCUUUCUCGAUCAGUUGUCUUU | 89.5
Ic_S4_P4E.1_K4.1_C4.1_H4.1_A4.1_[A6C]_F4.1_[T8C]_[A9G]_T4.1 (ssRNA) RNA: UUUGACAACUGAUCGUUCUUUCUUGUAUCUCGUUCUUUCUCGAUCAGUUGUCUUU | 31.1
Ic_S4_P4E.1_K4.1_C4.1_H4.1_A4.1_[A6T]_F4.1_[T8G]_[A9T]_T4.1 (ssRNA) RNA: UUUGACAACUGAUCGUUCUUUCUUGUAUUUGUUUCUUUCUCGAUCAGUUGUCUUU | 46.1
Ic_S4_P4E.1_K4.1_C4.1_H4.1_A4.1_[A6C]_[T7G]_F4.1_[T8A]_[A9C]_T4.1 (ssRNA) RNA: UUUGACAACUGAUCGUUCUUUCUUGUAUCGACUUCUUUCUCGAUCAGUUGUCUUU | > 2300
Ic_S4_P4E.1_K4.1_C4.1_H4.1_A4.1_[A6T]_F4.1_[T8A]_T4.1 (ssRNA) RNA: UUUGACAACUGAUCGUUCUUUCUUGUAUUUAAUUCUUUCUCGAUCAGUUGUCUUU | 21.1
Ic_S4_P4E.1_K4.1_C4.1_H4.1_A4.1_[A6C]_F4.1_[T8A]_[A9G]_T4.1 (ssRNA) RNA: UUUGACAACUGAUCGUUCUUUCUUGUAUCUAGUUCUUUCUCGAUCAGUUGUCUUU | 40.4
Ic_S4_P4E.1_K4.1_C4.1_H4.1_A4.1_[A6T]_[T7C]_F4.1_[T8C]_[A9G]_T4.1 (ssRNA) RNA: UUUGACAACUGAUCGUUCUUUCUUGUAUUCCGUUCUUUCUCGAUCAGUUGUCUUU | 158
Ic_S4_P4E.1_K4.1_C4.1_H4.1_A4.1_[A6T]_[T7C]_F4.1_[A9G]_T4.1 (ssRNA) RNA: UUUGACAACUGAUCGUUCUUUCUUGUAUUCUGUUCUUUCUCGAUCAGUUGUCUUU | 20.4
Ic_S4_P4E.1_K4.1_C4.1_H4.1_A4.1_[A6T]_[T7A]_F4.1_[T8G]_[A9C]_T4.1 (ssRNA) RNA: UUUGACAACUGAUCGUUCUUUCUUGUAUUAGCUUCUUUCUCGAUCAGUUGUCUUU | 794
Ic_S4_P4E.1_K4.1_C4.1_H4.1_A4.1_[A6T]_[T7A]_F4.1_[T8A]_[A9T]_T4.1 (ssRNA) RNA: UUUGACAACUGAUCGUUCUUUCUUGUAUUAAUUUCUUUCUCGAUCAGUUGUCUUU | 95
Ic_S4_P4E.1_K4.1_C4.1_H4.1_A4.1_[A6T]_[T7C]_F4.1_[A9C]_T4.1 (ssRNA) RNA: UUUGACAACUGAUCGUUCUUUCUUGUAUUCUCUUCUUUCUCGAUCAGUUGUCUUU | 34.4
Ic_S4_P4E.1_K4.1_C4.1_H4.1_A4.1_[A6C]_[T7A]_F4.1_[T8A]_[A9T]_T4.1 (ssRNA) RNA: UUUGACAACUGAUCGUUCUUUCUUGUAUCAAUUUCUUUCUCGAUCAGUUGUCUUU | 50.5
